Measurements: IntAct's records for PubMed 29995851

B1: Protein patched homolog 1 (Homo sapiens), Q13635-1 (parent)
chain: MASAGNAAEPQDRGGGGSGCIGAPGRPAGGGRRRRTGGLRRAAAPDRDYLHRPSYCDAAFALEQISKGKATGRKAPLWLRAKFQRLLFKLGCYIQKNCGKFLVVGLLIFGAFAVGLKAANLETNVEELWVEVGGRVSRELNYTRQKIGEEAMFNPQLMIQTPKEEGANVLTTEALLQHLDSALQASRVHVYMYNRQWKLEHLCYKSGELITETGYMDQIIEYLYPCLIITPLDCFWEGAKLQSGTAYLLGKPPLRWTNFDPLEFLEELKKINYQVDSWEEMLNKAEVGHGYMDRPCLNPADPDCPATAPNKNSTKPLDMALVLNGGCHGLSRKYMHWQEELIVGGTVKNSTGKLVSAHALQTMFQLMTPKQMYEHFKGYEYVSHINWNEDKAAAILEAWQRTYVEVVHQSVAQNSTQKVLSFTTTTLDDILKSFSDVSVIRVASGYLLMLAYACLTMLRWDCSKSQGAVGLAGVLLVALSVAAGLGLCSLIGISFNAATTQVLPFLALGVGVDDVFLLAHAFSETGQNKRIPFEDRTGECLKRTGASVALTSISNVTAFFMAALIPIPALRAFSLQAAVVVVFNFAMVLLIFPAILSMDLYRREDRRLDIFCCFTSPCVSRVIQVEPQAYTDTHDNTRYSPPPPYSSHSFAHETQITMQSTVQLRTEYDPHTHVYYTTAEPRSEISVQPVTVTQDTLSCQSPESTSSTRDLLSQFSDSSLHCLEPPCTKWTLSSFAEKHYAPFLLKPKAKVVVIFLFLGLLGVSLYGTTRVRDGLDLTDIVPRETREYDFIAAQFKYFSFYNMYIVTQKADYPNIQHLLYDLHRSFSNVKYVMLEENKQLPKMWLHYFRDWLQGLQDAFDSDWETGKIMPNNYKNGSDDGVLAYKLLVQTGSRDKPIDISQLTKQRLVDADGIINPSAFYIYLTAWVSNDPVAYAASQANIRPHRPEWVHDKADYMPETRLRIPAAEPIEYAQFPFYLNGLRDTSDFVEAIEKVRTICSNYTSLGLSSYPNGYPFLFWEQYIGLRHWLLLFISVVLACTFLVCAVFLLNPWTAGIIVMVLALMTVELFGMMGLIGIKLSAVPVVILIASVGIGVEFTVHVALAFLTAIGDKNRRAVLALEHMFAPVLDGAVSTLLGVLMLAGSEFDFIVRYFFAVLAILTILGVLNGLVLLPVLLSFFGPYPEVSPANGLNRLPTPSPEPPPSVVRFAMPPGHTHSGSDSSDSEYSSQTTVSGLSEELRHYEAQQGAGGPAHQVIVEATENPVFAHSTVVHPESRHHPPSNPRQQPHLDSGSLPPGRQGQQPRRDPPREGLWPPPYRPRRDAFEISTEGHSGPSNRARWGPRGARSHNPRNPASTAMGSSVPGYCQPITTVTASASVTVAVHPPPVPGPGRNPRGGLCPGYPETDHGLFEDPHVPFHVRCERRDSKVEVIELQDVECEERPRGSSSN

Variants of: B1
Settings: with shh_human SHH

| effect of a mutation on the interaction | Variant |
| --- | --- |
| decreasing interaction strength | L254A;W256A |
| disrupting interaction | E221A;Y222A;L223A;Y224A |
